Results published in patent publication US11278600B2, “Human alpha-galactosidase variants” (Codexis, Inc., priority 2014, dated 2022).

How the values were obtained:
Type in all cases: biochemical
[1] = HTP-analysis of yeast culture supernatants, no challenge (MUGal hydrolysis); conditions: activity of the variant/activity of Rd3BB (SEQ ID NO: 13), yeast culture supernatant
Procedure, shortened: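 GLA variants expressed in yeast INVSc1, secreted into SD-Ura broth over 66-84 h at 30° C; clarified supernatants tested without challenge. Supernatant mixed with McIlvaine buffer pH 4.8 and 2 mM MUGal (citrate/KCl, pH 4.6), 37° C for 30-180 min, carbonate-quenched, fluorescence Ex 355/Em 448 nm.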

[2] = HTP-analysis of supernatants pretreated with acid (MUGal hydrolysis); conditions: challenge at pH 4.0; activity of the variant/activity of Rd3BB (SEQ ID NO: 13); yeast culture supernatant
Procedure, shortened: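 MUGal hydrolysis was tracked by fluorescence (Ex 355 nm, Em 448 nm) after a 30-180 min reaction at 37° C. in pH 4.8 McIlvaine/citrate buffer, stopped with 1 M sodium carbonate. Beforehand, yeast (INVSc1) culture supernatants carrying GLA variants were held 1-3 h at 37° C. in acidic McIlvaine buffer, pH 3.3-4.3.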

[3] = HTP-analysis of supernatants pretreated with base (MUGal hydrolysis); conditions: challenge at pH 8.2; activity of the variant/activity of Rd3BB (SEQ ID NO: 13); yeast culture supernatant
Procedure, shortened: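 GLA variants were secreted by transformed INVSc1 yeast grown 66-84 h at 30° C. Supernatants were exposed to neutral-to-basic buffers (pH 7.0-9.7) at 37° C for 1-18 h, then assayed with MUGal in acidic citrate/McIlvaine buffer, with fluorescence read after quenching.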

[4] = HTP-analysis of supernatants pretreated with bovine serum (MUGal hydrolysis); conditions: activity of the variant/activity of Rd3BB (SEQ ID NO: 13), yeast culture supernatant
Procedure, shortened: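 Yeast INVSc1 culture supernatants containing secreted GLA variants were mixed with bovine serum (20:80) and held 1 h at 37° C. Serum-treated samples then reacted with MUGal (4 mM stock) in citrate/McIlvaine buffer (pH 4.3/4.8) for 180 min at 37° C., were quenched with sodium carbonate, and read by fluorescence (Ex 355, Em 448 nm).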

Molecule | Relative Activity of GLA Variants After No Challenge (NC) [1] | Relative Activity of GLA Variants After Challenge at pH 4.0 [2] | Relative Activity of GLA Variants After Challenge at pH 8.2 [3] | Relative Activity of GLA Variants After Challenge with Serum [4]
351 (protein, Synthetic Polypeptide sequence of Variant No. 351 of mature Human GLA) LDNGLARTPTMGWLHWERFMCNLDCQEEPDSCISEKLFMEMAERMVSEGWKDAGYEYLCIDDCWMAPQRDSEGRLQADPQRFPHGIRQLANYVHSKGLKFGIYADVGNKTCAGFPGSFGYYDIDAQTFADWGVDLLKFDGCYCDSLENLADGYKHMSLALNRTGRSIVYSCEWPLYMWPFQKPNYTEIRQYCNHWRNFADIDDSWASVKSILDWTSFNQETIVDVAGPGGWNDPDMLVIGNFGLSWNQQVTQMALWAIMAAPLFMSNDLRHISPQAKALLQDKDVIAINQDPLGKQGYQLRKGDNFEVWERPLSGLAWAVAIINRQEIGGPRSYTIAVASLGKGVACNPACFITQLLPVKRKLGFYNWTSRLKSHVNPTGTVLLQLENTMQMSLKDLL | + (+ = 0.5 to 1.5 relative activity over Rd3BB (SEQ ID NO: 13)) | + (+ = 0.5 to 1.5 relative activity over Rd3BB (SEQ ID NO: 13)) | ++ (++ = >1.5 to 2.5 relative activity over Rd3BB (SEQ ID NO: 13)) | + (+ = 0.5 to 1.5 relative activity over Rd3BB (SEQ ID NO: 13))
352 (protein, Synthetic Polypeptide sequence of Variant No. 352 of mature Human GLA) LDNGLARTPTMGWLHWERFMCNLDCQEEPDSCISEKLFMEMAERMVSEGWKDAGYEYLCIDDCWMAPQRDSEGRLQADPQRFPHGIRQLANYVHSKGLKFGIYADVGNKTCAGFPGSFGYYDIDAQTFADWGVDLLKFDGCYCDSLENLADGYKHMSLALNRTGRSIVYSCEWPLYMWPFQKPNYTEIRQYCNHWRNFADIDDSWASIKSILDWTSFNQEKIVDVAGPGGWNDPDMLVIGNFGLSWNQQVTQMALWAIMAAPLFMSNDLRHISPQAKALLQDKDVIAINQDPLGKQGYQLRKGDNFEVWERPLSGLAWAVAIINRQEIGGPRSYTIAVASLGKGVACNPACFITQLLPVKRKLGFYNWTSRLKSHVNPTGTVLLQLENTMQMSLKDLL | + (+ = 0.5 to 1.5 relative activity over Rd3BB (SEQ ID NO: 13)) | + (+ = 0.5 to 1.5 relative activity over Rd3BB (SEQ ID NO: 13)) | + (+ = 0.5 to 1.5 relative activity over Rd3BB (SEQ ID NO: 13)) | + (+ = 0.5 to 1.5 relative activity over Rd3BB (SEQ ID NO: 13))
353 (protein, Synthetic Polypeptide sequence of Variant No. 353 of mature Human GLA) LDNGLARTPTMGWLHWERFMCNLDCQEEPDSCISEKLFMEMAERMVSEGWKDAGYEYLCIDDCWMAPQRDSEGRLQADPQRFPHGIRQLANYVHSKGLKFGIYADVGNKTCAGFPGSFGYYDIDAQTFADWGVDLLKFDGCYCDSLENLADGYKHMSLALNRTGRSIVYSCEWPLYMWPFQKPNYTEIRQYCNHWRNFADIDDSWASIKSILDWTSFNQETIVDVAGPGGWNDPDMLVIGNFGLSWNQQVTQMALWAIMAAPLFMSNDLRHISPQAKALLQDKDVIAINQDPLGKQGYQLRQGDNFEVWERPLSGLAWAVAIINRQEIGGPRSYTIAVASLGKGVACNPACFITQLLPVKRKLGLYNWTSRLKSHVNPTGTVLLQLENTMQMSLKDLL | − (− = <0.5 relative activity to Rd3BB (SEQ ID NO: 13)) | − (− = <0.5 relative activity to Rd3BB (SEQ ID NO: 13)) | − (− = <0.5 relative activity to Rd3BB (SEQ ID NO: 13)) | + (+ = 0.5 to 1.5 relative activity over Rd3BB (SEQ ID NO: 13))
354 (protein, Synthetic Polypeptide sequence of Variant No. 354 of mature Human GLA) LDNGLARTPTMGWLHWERFMCNLDCQEEPDSCISEKLFMEMAERMVSEGWKDAGYEYLCIDDCWMAPQRDSEGRLQADPQRFPHGIRQLANYVHSKGLKFGIYADVGNKTCAGFPGSFGYYDIDAQTFADWGVDLLKFDGCYCDSLENLADGYKHMSLALNRTGRSIVYSCEWPLYMWPFQKPNYTEIRQYCNHWRNFADIDDSWASIKSILDWTSFNQETIVDVAGPGGWNDPDMLVIGNFGLSWNQQVTQMALWAIMAAPLFMSNDLRHISPQAKALLQDKDVIAINQDPLGKQGYQLRQGDNFEVWERPLSGLAWAVAIINRQEIGGPRSYTIAVASLGKGVACNPACFITQLLPVKRKLGLYNWTSRLKSHINPTGTVLLQLENTMQMSLKDLL | − (− = <0.5 relative activity to Rd3BB (SEQ ID NO: 13)) | + (+ = 0.5 to 1.5 relative activity over Rd3BB (SEQ ID NO: 13)) | + (+ = 0.5 to 1.5 relative activity over Rd3BB (SEQ ID NO: 13)) | + (+ = 0.5 to 1.5 relative activity over Rd3BB (SEQ ID NO: 13))
355 (protein, Synthetic Polypeptide sequence of Variant No. 355 of mature Human GLA) LDNGLARTPTMGWLHWERFMCNLDCQEEPDSCISEKLFMEMAERMVSEGWKDAGYEYLCIDDCWMAPQRDSEGRLQADPQRFPHGIRQLANYVHSKGLKFGIYADVGNKTCAGFPGSFGYYDIDAQTFADWGVDLLKFDGCYCDSLENLADGYKHMSLALNRTGRSIVYSCEWPLYMWPFQKPNYTEIRQYCNHWRNFADIDDSWASIKSILDWTSFNQETIVDVAGPGGWNDPDMLVIGNFGLSWDQQVTQMALWAIMAAPLFMSNDLRHISPQAKALLQDKDVIAINQDPLGKQGYQLRQGDNFEVWERPLSGLAWAVAIINRQEIGGPRSYTIAVASLGDGVACNPACFITQLLPVKRKLGFYNWTSRLKSHVNPTGTVLLQLENTMQMSLKDLL | + (+ = 0.5 to 1.5 relative activity over Rd3BB (SEQ ID NO: 13)) | ++ (++ = >1.5 to 2.5 relative activity over Rd3BB (SEQ ID NO: 13)) | ++ (++ = >1.5 to 2.5 relative activity over Rd3BB (SEQ ID NO: 13)) | + (+ = 0.5 to 1.5 relative activity over Rd3BB (SEQ ID NO: 13))
356 (protein, Synthetic Polypeptide sequence of Variant No. 356 of mature Human GLA) LDNGLARTPTMGWLHWERFMCNLDCQEEPDSCISEKLFMEMAERMVSEGWKDAGYEYLCIDDCWMAPQRDSEGRLQADPQRFPHGIRQLANYVHSKGLKFGIYADVGNKTCAGFPGSFGYYDIDAQTFADWGVDLLKFDGCYCDSLENLADGYKHMSLALNRTGRSIVYSCEWPLYMWPFQKPNYTEIRQYCNHWRNFADIDDSWASIKSILDWTSFNQETIVDVAGPGGWNDPDMLVIGNFGLSWDQQVTQMALWAIMAAPLFMSNDLRHISPQAKALLQDKDVIAINQDPLGKQGYQLRKGDNFEVWERPLSGLAWAVAIINRQEIGGPRSYTIAVASLGKGVACNPACFITQLLPVKRKLGFYNWTSRLKSHINPTGTVLLQLENTMQMSLKDLL | + (+ = 0.5 to 1.5 relative activity over Rd3BB (SEQ ID NO: 13)) | + (+ = 0.5 to 1.5 relative activity over Rd3BB (SEQ ID NO: 13)) | ++ (++ = >1.5 to 2.5 relative activity over Rd3BB (SEQ ID NO: 13)) | + (+ = 0.5 to 1.5 relative activity over Rd3BB (SEQ ID NO: 13))
357 (protein, Synthetic Polypeptide sequence of Variant No. 357 of mature Human GLA) LDNGLARTPTMGWLHWERFMCNLDCQEEPDSCISEKLFMEMAERMVSEGWKDAGYEYLCIDDCWMAPQRDSEGRLQADPQRFPHGIRQLANYVHSKGLKFGIYADVGNKTCAGFPGSFGYYDIDAQTFADWGVDLLKFDGCYCDSLENLADGYKHMSLALNRTGRSIVYSCEWPLYMWPFQKPNYTEIRQYCNHWRNFADIDDSWASIKSILDWTSFNQETIVDVAGPGGWNDPDMLVIGNFGLSWDQQVTQMALWAIMAAPLFMSNDLRHISPQAKALLQDKDVIAINQDPLGKQGYQLRKGDNFEVWERPLSGLAWAVAVINRQEIGGPRSYTIAVASLGKGVACNPACFITQLLPVKRKLGFYNWTSRLKSHVNPTGTVLLQLENTMQMSLKDLL | + (+ = 0.5 to 1.5 relative activity over Rd3BB (SEQ ID NO: 13)) | ++ (++ = >1.5 to 2.5 relative activity over Rd3BB (SEQ ID NO: 13)) | +++ (+++ = >2.5 relative activity over Rd3BB (SEQ ID NO: 13)) | + (+ = 0.5 to 1.5 relative activity over Rd3BB (SEQ ID NO: 13))
